For assay [1], the system named is washed platelets. The assay is described as follows: Ristocetin-induced agglutination of washed platelets (scFv). Particulars: for % agglutination: 100% = ristocetin treatment; for % inhibition: ristocetin-induced agglutination. The assay is classed as cell-based, human. The procedure: Aggregation is determined in PRP due to the presence of thrombotic agents, while agglutination is determined in washed platelets. The effect of Y1 (scFv) on agglutination of washed platelets was tested at various concentrations of Y1. Platelets were pre-incubated with Y1 scFv, Y17 scFv, Y16-scFv, or a control TM-1 scFv for 4 min at 37° C. before being exposed to ristocetin, an inducer of platelet agglutination and aggregation.
Platelet concentrate in acid-citrate-dextrose (ACD) was obtained from a blood bank, platelets were isolated, washed once in buffer containing ACD and saline in a ratio of 1:7. The platelets were centrifuged at 800 g for 10 min after each wash and were resuspended in Tyrodes solution (2 mM MgCl2, 137 mM NaCl, 2.68 mM KCl, 3 mM NaH2PO4, 0.1% glucose, 5 mM Hepes and 0.35% albumin, pH 7.35) and count the number of cells.
For platelet aggregation studies, platelet rich plasma (PRP) and washed platelets were stirred at 500 rpm at 37° C. in whole blood Lumiaggregometer (Chronolog, Havertown, Pa.). The difference in light transmission through the platelet suspension and suspending medium was taken as 100% aggregation. The effect of Y1 on platelet aggregation was evaluated by addition of different concentration of Y1 before the addition of agonist, and the effect was recorded for four minutes.
The effect of Y17-scFv on vWF-dependent agglutination of platelets was tested at different concentrations of Y17.

In assay [2] the test system is RP-HPLC KG-1 membrane fraction. Briefly: Western blot with Y1 on SDS-PAGE reducing gels, KG-1 membrane fraction after enzyme treatment. The assay is classed as binding, human. Particulars: O-Sialo glycoprotein endopeptidase, 30′ at 37° C. The source says: (§1) Y1 ligand was further characterized using enzymatic treatments with proteases, glycanases, and […]; Western blotting with Y1, anti-CD42 antibodies, anti-CD162 antibodies and 181, immunoprecipitation using Y1 and anti-CD162 antibodies; FACS analysis using Y1 anti-CD162 antibodies; and sequencing.
(§2) The table below summarizes the biochemical experiments preformed to characterize and localize the Y1 binding site on KG-1 cells.
(§3) The nitrocellulose membrane was blocked using 5% skim milk for one hour at room temperature. The membrane was then washed 3 times for 5 minutes each with 0.05% Tween 20 in PBS at room temperature. The membrane was incubated with 5 μg/ml Y1-biotin (or 181-biotin) in 2% skim milk in PBS for one hour at room temperature. The membrane was then washed 3 times for 5 minutes each with cold 0.05% Tween 20 in PBS in the cold room (about 4 to about 10° C.). The membrane was then incubated in the cold room with a 1:1000 dilution of SAV-HRP (streptavidin-HRP) (at a final concentration of […]) in 2% skim milk, 0.05% Tween. The dilution was carried out at room temperature (about 25° C.), then the diluted SAV-HRP was cooled on ice for 10-15 minutes before use. The incubation was carried out for 1 hour with gentle shaking. After the incubation with SAV-HRP, the membrane was washed, as above. […]
For orientation: Immunoblotting shows a protein as a band on a membrane.

Assay [3] addresses T1, Glycocalicin (GC) (Homo sapiens, UniProt P07359).
T1 construct: glycocalicin (soluble, extracellular fragment of GPIbα); from tissue; host or cells: human platelets
Briefly: Western blot with Y1 on SDS-PAGE reducing gels, glycocalicin after enzyme treatment. The assay is classed as binding. Particulars: O-Sialo glycoprotein endopeptidase, 30′ at 37° C.
Description: as §1, §2, §3

Assay [4] relates to Leukemia Cells. The assay is described as follows: FACS of leukemia samples: anti-CD162 versus Y1. The class given is binding, human. The following applies: 12 patient samples. The protocol: Analysis of binding of scFv Y1 antibodies and anti-CD162 antibodies to diseased cells also illustrates that scFv Y1 has binding characteristics different from those of anti-CD162 antibodies. […] (Table F). Y1 binds to the leukemic cells in 10 of 12 samples. In contrast, anti-CD162 bound only 5 out of 12 samples. […] Thus, it may be concluded that, in leukemic cells, scFv Y1 binds to a ligand other than that recognized by anti-CD162.
Samples provided from hospitals. Patients sample 30 μl/tube. Add 5 μl /tube of CD33-APC (for AML) or CD19-APC (for B-CLL) or CD38-APC (for Multiple Myeloma). Add 5 μl/tube of CD45-PerCp and 5 μl of scFv-Y1 or control scFv-N31 or CD162-PE (KPL1). Incubate tubes 30 minutes at 4° C. with low shaking. Wash by adding 2 ml PBS and spin 5 minutes at 1200 rpm. Discard supernatant.
For a one step assay continue with the lysis step:
Add 500 μl BD Lysine solution diluted 1:10 with ddH2O (300 μl to patient sample). Vortex at high speed and incubate 12 minutes at 4° C. Wash as above. Discard supernatant. And add 500 μl PBS. The samples are read in the FACS using blood sample acquisition setup according to international standards.
For two or more assays: working buffer is PBS+1% BSA+0.05% sodium azide. Incubations and wash as above.
Lysis of the red blood cells is the final step in the assay, followed by resuspension with 500 μl PBS.

Assay [5] addresses T2, natural human platelet derived glycocalicin (Homo sapiens, UniProt P07359).
T2 construct: glycocalicin (soluble, extracellular fragment of GPIbα); from tissue; host or cells: human platelets
The assay is described as follows: Western blot on natural platelet glycocalicin. The assay is classed as binding. Particulars: semi-purified human platelet derived glycocalicin. The procedure:
The DNA fragment encoding for glycocalicin (GC, amino acid 1 to amino acid 493 of GPIbα) was cloned into an IPTG inducible prokaryotic vector cassette. E. coli (BL21 DE3) cells harboring the newly constructed plasmid were grown at 37° C. to O.D. 0.7-0.8, than at 37° C. for 3 hours for in the presence of IPTG for induction.
SDS-polyacrylamide gel loaded either with semi-purified human platelet derived glycocalicin (“GC”) or with E. coli cell lysates (“total”) derived from induced and non-induced cells were analyzed. Western blot analysis was performed with biotinylated Y1-scFv, polyclonal rabbit anti-human glycocalicin antibody, commercially available mouse anti-human CD42 monoclonal antibody (SZ2 Immunotech, PM640 Serotec, HIP1 Pharmigen, AN51 DAKO), and polyclonal antibody against the N-terminus of GPIbα (Sc-7071, Santa Cruz).

B1: Y1 scFv: fully human scFv clone binding platelets and AML cells; SEQ ID NO:25, heavy chain CDR3 SEQ ID NO:8 (protein, listed as Homo sapiens)
scFv: MKYLLPTAAAGLLLLAAQPAMAEVQLVESGGGVVRPGGSLRLSCAASGFTFDDYGMSWVRQAPGKGLEWVSGINWNGGSTGYADSVKGRFTISRDNAKNSLYLQMNSLRAEDTAVYYCARMRAPVIWGQGTLVTVSRGGGGSGGGGSGGGGSSELTQDPAVSVALGQTVRITCQGDSLRSYYASWYQQKPGQAPVLVIYGKNNRPSGIPDRFSGSSSGNTASLTITGAQAEDEADYYCNSRDSSGNHVVFGGGTKLTVLGAAAEQKLISEEDLNGAA
For orientation: % inhibition means how much of the control response was suppressed. B1: the “% agglutination” value is 92% in assay [1] (scFv 4 μg/ml), 67% in assay [1] (scFv 12.5 μg/ml) and 23% in assay [1] (scFv 25 μg/ml). Further, the “% inhibition” value in assay [1] (scFv 4 μg/ml) was 8%; in assay [1] (scFv 4 μg/ml, listed as Y1), “No inhibition”; in assay [1] (scFv 12.5 μg/ml), 33%; in assay [1] (scFv 12.5 μg/ml, listed as Y1), “only partial inhibition”. Besides, the “Reactivity with Y1” value is given as “Reactivity” in assay [2] and “Enhanced” in assay [3]. Also, the “samples in which the antibody binds the leukemic cells” value in assay [4] is recorded as 10 of 12. Further, the “recognition in Western blot” value in assay [5] was “recognized”.

Values taken from patent US20040001839A1, “Multimers - isolated molecules comprising epitopes containing sulfated moieties, antibodies to such epitopes, and uses thereof” (priority 2000, published 2004).
